The target in the first assay is Angioensin Converting Enzyme (ACE).
Consider “Over 10 kDa concentrated solution of ginkgo protein hydrolysate (pool or library)”, for which the ACE inhibitory activity (%) is 56.2%.
Still for that read-out and setting: the same measure for “Ultrafiltrate below 3 kDa of ginkgo protein hydrolysate (pool or library)”: 85.3%; for “Ultrafiltrate of 3-10 kDa of ginkgo protein hydrolysate (pool or library)”: 72%.

A further assay shares this target. This is another data set of the same source.
For the substance “AS1.398 neutral protease hydrolysate of ginkgo protein (pool or library)”, the Inhibitory activity of hydrolysate (%) worked out at 87.4%.
On the same count and under the same terms, the same measure for “Alcalase hydrolysate of ginkgo protein (pool or library)”: 80.4%; for “papain hydrolysate of ginkgo protein (pool or library)”: 73.2%.
For “trypsin hydrolysate of ginkgo protein (pool or library)”, the Inhibitory activity of hydrolysate (%) is 61.3%.

(Values after US12102661B2.)
